# Molecular target: a-sACE2 (enzymatically active soluble ACE2) as measured in Example 7b (UniProt Q9BYF1)
# Experiment: cell-based or functional assay
substance,measurement,value
"goat polyclonal anti-human ACE2 antibody (R&D Systems, #AF933)",enzymatic activity measurement performed according to the enzymatic activity assay of example 3a,> 5 µg/mL
